Reference: US20210355235A1, “Compositions and Methods For Treating Cancer with Anti-Renalase antibodies and Anti-PD1 antibodies” (YALE UNIVERSITY, priority 2017, published 2021)
Entries after “also recorded” stand apart in the source; their conditions may differ. Read-outs that look alike come from different tables or passages of the source.

Legend:
Panc1 cells = test: western blot of p38 and STAT3 phosphorylation; format: cell-based, human
From the text: FIG. 27, comprising FIGS. 27A through 27E, is a series of images and charts showing the interaction between RNLS and STAT3, and the mechanistic model of inhibition by m28-RNLS. FIG. 27A is an image showing activation of STAT3 by RNLS in Panc1 cells; Panc1 cells in culture treated with either BSA or RNLS, and STAT3 phosphorylation assessed by western blot; p-Ser^727-STAT3: phosphorylation at serine 727, p-Y^705-STAT3: phosphorylation at tyrosine 705; representative study. FIG. 27B is a chart depicting the quantification of STAT3 phosphorylation with RNLS; signals normalized to total STAT3; n=3, *=P<0.05. […] FIG. 27D is a chart showing the quantification of STAT3 phosphorylation with m28-RNLS; signals normalized to GAPDH loading control; n=3, *=P<0.05. FIG. 27E depicts the proposed mechanistic model for antitumor activity of m28-RNLS.

[1] = test system: YUMM mouse melanoma tumor; test: anti-PD1 resistant YUMM melanoma engrafted into immunocompetent C57B6 mice; format: in vivo; settings: qPCR
Description: Experiments were conducted to assess the synergism between anti-RNLS antibody and anti-PD1 antibody against a tumor cell line that is resistant to anti-PD1 agents (i.e., YUMM) (FIG. 35). The anti-PD1 resistant mouse melanoma cell line (YUMM) was engrafted into immunocompetent C57B6 mice. After the engrafted YUMM tumor volume reached about 100 mm^3 (i.e., day 0), treatments were administered on days 0, 7, 9, and 12, as indicated by the arrows on […].
Experiments were conducted to measure PD1 and PD-L1 mRNA expression by qPCR in unfractioned tumor mass after treatment with anti-RNLS antibody (m28) alone, anti-PD1 antibody alone, and the combination of anti-RNLS antibody (m28) and anti-PD1 antibody (FIG. 36).
Experiments were conducted to measure CD8a mRNA expression by qPCR in unfractioned tumor mass after treatment with anti-RNLS antibody (m28) alone, anti-PD1 antibody alone, and the combination of anti-RNLS antibody (m28) and anti-PD1 antibody.

[2] = test system: renalase-1 and renalase-2; test: renalase isoform specificity of the antibodies (ELISA / hybridoma screening); format: binding, human; settings: renalase-1 vs renalase-2
Description: Peptides were used as immunogens. The peptides generated ranged from 9 to 21 amino acids and corresponded to regions of the renalase-1 and renalase-2 proteins. […] Each peptide was conjugated to the adjuvant KLH via the cysteine and used to immunize 6 rabbits. Antiserum collected from each animal was screened for anti-renalase antibody titer by ELISA assay using both the relevant peptide (BSA-conjugate) or full length renalase-1 or 2. The antisera were also tested for their ability to detect endogenous renalase in tissue lysates by western blot. Using these screening criteria the animals producing antibodies with the preferred characteristics were selected. In some examples and for some peptides, several animals produced antibodies with the required specificity. […] Polyclonal antibodies raised against all of the peptides were generated by purification of total IgG from terminal bleeds by protein G chromatography followed by further purification on peptide affinity chromatography. Further and using standard procedures, lymphocytes from the spleens of selected animals were fused to myeloma cells for hybridoma generation. The hybridoma supernatants were screened for binding to both the peptides against which they were raised and secondarily screened against whole renalase protein. Selected hybridomas were sub-cloned and expanded for antibody purification. The monoclonal antibodies were purified from conditioned hybridoma culture supernatant by protein A affinity chromatography.

A375.S2 melanoma cells = test: cell viability, WST-1 assay; format: cell-based, human; settings: WST-1, 72 hrs
Description: FIG. 19, comprising FIGS. 19A through 19D, is a series of images and charts showing that inhibition of RNLS signaling is cytotoxic to melanoma cells in vitro. […] FIG. 19B comprises two charts depicting relative cell viability: Left panel: Cells were treated with indicated antibodies for 72 hrs and cell viability was determined using WST-1; m28-RNLS (also known as 1D-28-4), m37-RNLS (also known as 1D-37-10): monoclonal antibodies raised against RNLS peptide RP220; Right panel: A375.S2 cells treated with increasing doses of m28-RNLS for 72 hrs and cell viability determined with a WST-1 assay; n=6, * indicates p<0.05 and ** indicates p<0.005. FIG. 19C comprises representative photos of A375.S2, SkMel28, and SkMel5 after 72 hrs incubation with either control rabbit IgG or m28-RNLS. FIG. 19D is a chart depicting relative cell viability, comprising amino acid (AA) sequence of RNLS peptide antagonist (RP220A).
(§1) Total cell number and percentage of live cells were assessed by trypan blue exclusion, and cells were counted using a BioRad TC10 automated cell counter. For additional studies, cell viability was determined using WST-1 reagent (Roche Diagnostics, Indianapolis, Ind., USA) according to the manufacturers' instruction. Absorbances were read using a microplate reader (Power Waves XS, BioTek Instruments, Winooski, Vt., USA).

melanoma cell lines = test: melanoma cells in culture, viability / growth; format: cell-based, human
Description: as §1

B1: m28-RNLS: rabbit anti-renalase monoclonal raised against RNLS peptide RP-220; heavy chain SEQ ID NO:9, light chain SEQ ID NO:10 (antibody)
heavy: METGLRWLLLVAVLKGVQCQSVEESGGRLVTPGTPLTLTCTVSGFSLSSFAVGWVRQAPGKGLEYIGIISSVGITRYASWAAGRFTISKTSTTVDLKITSPTTEDTATYFCARYGYSGDVNRLDLWGQGTLVTVSSGQPKAPSVFPLAPCCGDTPSSTVTLGCLVKGYLPEPVTVTWNSGTLTNGVRTFPSVRQSSGLYSLSSVVSVTSSSQPVTCNVAHPATNTKVDKTVAPSTCSKPTCPPPELLGGPSVFIFPPKPKDTLMISRTPEVTCVVVDVSQDDPEVQFTWYINNEQVRTARPPLREQQFNSTIRVVSTLPIAHQDWLRGKEFKCKVHNKALPAPIEKTISKARGQPLEPKVYTMGPPREELSSRSVSLTCMINGFYPSDISVEWEKNGKAEDNYKTTPAVLDSDGSYFLYSKLSVPTSEWQRGDVFTCSVMHEALHNHYTQKSISRSPGK
light: MDTRAPTQLLGLLLLWLPGATFAQVLTQTASPVSAAVGGTVTINCQASQSVYDNNNLAWYQQKPGQPPKQLIYGASTLASGVSSRFKGSGSGTQFTLTISGVQCDDAATYYCLGEFSCSSADCFAFGGGTEVVVKGDPVAPTVLIFPPSADLVATGTVTIVCVANKYFPDVTVTWEVDGTTQTTGIENSKTPQNSADCTYNLSSTLTLTSTQYNSHKEYTCKVTQGTTSVVQSFNRGDC
modifications: 1D-28-4 full length heavy chain amino acid; 1D-28-4 full length light chain amino acid
For B1, the “p38 MAPK phosphorylation” value (Panc1 cells; beginning at day 1 post treatment) was “sustained phosphorylation”, the “STAT3 phosphorylation (p-Y705-STAT3) after antibody” value (Panc1 cells; up to 4 days) was “long-lasting and sustained decrease; also recorded: inhibits STAT3 phosphorylation” and the “CD8a mRNA expression in unfractioned tumor mass (cytotoxic T cells)” value [1] was “activates cytotoxic T cells”. The renalase-type specificity [2] was “recognize renalase-1 and renalase-2”, the cell viability (A375.S2 melanoma cells) was “increasing levels of cytotoxicity in correlation with increasing treatment concentrations” and the “melanoma cell viability / growth in culture” value (melanoma cell lines) was “decreased the viability of all (total of 5) melanoma cell lines tested”. The “melanoma cell viability / growth in culture” value (melanoma cell lines; listed as 1D-28-4) was “inhibits melanoma cells in culture”.
